Consider six sequences from US8710017B2, “Human and mouse targeting peptides identified by phage display” (priority 2000, dated 2014).

Bridge positions count the residues as written; N and C are the ends. Ends that are not written are not given here.

The target of assay [1] is T1, β5 integrin cytoplasmic domain (Homo sapiens, UniProt P18084).
T1 construct: the screenings involving the β5 cytoplasmic domain fusion protein
T1 sequence (P18084 743-799 limits assumed): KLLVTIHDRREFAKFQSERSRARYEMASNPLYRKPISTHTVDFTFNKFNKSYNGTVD
The assay can be described thus: Phage binding to immobilized GST-β5cyto. To be noted: for β5/GST Ratio: colonies from β5-GST wells divided by GST. Here is the method: FIG. 10. Binding of β5 cytoplasmic domain-selected phage to immobilized proteins. GST fusion proteins or GST alone were coated on microtiter wells at 10 μg/ml and used to bind phage expressing endostatin binding peptides. […] The data represent the mean colony counts from triplicate wells, with standard error less than 10% of the mean.
β3 and β5 cytoplasmic domain-binding peptides were isolated by screening multiple phage libraries with recombinant GST fusion proteins that contained either GST-β3cyto or GST-β5cyto coated onto microtiter wells. Immobilized GST was used as a negative control for enrichment during the panning of each cytoplasmic domain. Phage were sequenced from randomly selected clones after three rounds of panning as disclosed elsewhere (Koivunen et al., 1995; Pasqualini et al., 1995). Distinct sequences were isolated that interacted specifically with the β3 or with the β5 cytoplasmic domains (Table 9). Randomly selected clones from panning rounds II and III were sequenced. Amino acid sequences of the phagemid encoded peptides were deduced from nucleotide sequences. The ratios were calculated by dividing the number of colonies recovered from β3-GST-coated wells and those recovered from GST or BSA.
A similar strategy was used to determine the specificity of the phage isolated in the screenings involving the β5 cytoplasmic domain fusion protein.
To determine whether the binding of the selected motifs was specific for each cytoplasmic domain, binding assays were performed comparing the interaction of individual phage motifs with β1, β3, or β5 cytoplasmic domain fusion proteins. […] Both the β3- and β5-selected phage selectively interacted with the proteins on which they were originally selected, with average binding selectivities observed of β3/β1=3.9, β3/β5=3.7, β5/β1=4.8, and β5/β3=6.9 (not shown). The average selectivity for integrin cytoplasmic domains versus BSA was about one to two orders of magnitude (not shown). None of the phage tested seemed to bind strongly to the β1 cytoplasmic domain (not shown).

Assay [2] has as its target T2, APA (SK-RC-49/APA cells) (Homo sapiens, UniProt Q07075).
T2 construct: The renal carcinoma cell line SK-RC-49 was transfected with an expression vector encoding full-length APA cDNA; expressed in transfected cells; host or cells: SK-RC-49 renal carcinoma cells, stably transfected (G418)
The assay can be described thus: Cell panning of CX3CX3CX3C phage library on SK-RC-49/APA cells (insert frequency). Format: cell-based. The following applies: for Round 2 (%): share of 18 randomly selected phage inserts. Here is the method: A CX3CX3CX3C(C, cysteine; X, any amino acid) library was prepared (Rajotte et al., 1998). […] Cells were detached by incubation with 2.5 mM EDTA in PBS, washed once in binding medium (DMEM high glucose supplemented with 20 mM HEPES and 2% FCS), and resuspended in the same medium at a concentration of 2×10^6 cells/ml. 10^10 TU of phage were added to 500 μl of the cell suspension, and the mixture was incubated overnight (first round) or for 2 h (successive rounds) at 4° C. with gentle rotation. Cells were washed five times in binding medium at room temperature and resuspended in 100 μl of the same medium. Phage were rescued by adding 1 ml of exponentially growing K91Kan Escherichia coli bacteria and incubating the mixture for 1 h at room temperature. Bacteria were diluted in 10 ml of LB medium supplemented with 0.2 μg/ml tetracycline and incubated for another 20 min at room temperature. Serial dilutions were plated on LB plates containing 40 μg/ml tetracycline, and plates were incubated at 37° C. overnight before colonies were counted.
The CX3CX3CX3C phage library (10^10 transducing units [TU]) was preadsorbed on parental SK-RC-49 cells to decrease nonspecific binding. […] SK-RC-49/APA-bound phage were amplified and used for two consecutive rounds of selection.

Assay [3] addresses T2, APA (SK-RC-49/APA cells). The assay is described as follows: Phage binding specificity assay on SK-RC-49/APA cells. The assay is classed as cell-based. To be noted: for displacement of phage binding by CPRECESIC peptide: data not shown. The protocol: The cell binding assay was performed with an input of 10^9 TU as described for the cell panning. The specificity was confirmed by adding […] (SEQ ID NO:123) peptide to the binding medium in increasing concentrations. For phage binding on immunocaptured APA, wells were blocked for 1 h at room temperature with PBS/3% BSA and incubated with 10^9 TU for 1 h at room temperature in 50 μl PBS/3% BSA. After eight washes in PBS/1% BSA/0.01% Tween-20 and two washes in PBS, phage were rescued by adding 200 μl of exponentially growing K91Kan E. coli. Each experiment was repeated at least three times.

In assay [4] the test system is MDA-MB-435-derived tumor xenografts. The assay is described as follows: In vivo tumor homing of APA-binding phage. The arrangement: species or system mouse. The following applies: 10^9 TU iv, 5 min circulation, FIG. 22. The protocol:
MDA-MB-435-derived tumor xenografts were established in female nude mice 2 months old (Jackson Labs, Bar Harbor, Me.). Mice were anesthetized with Avertin and injected intravenously through the tail vein with 10^9 TU of the phage in a 200 μl volume of DMEM. The phage were allowed to circulate for 5 min, and the animals were perfused through the heart with 5 ml of DMEM. The tumor and brain were dissected from each mouse, weighed, and equal amounts of tissue were homogenized. The tissue homogenates were washed three times with ice-cold DMEM containing a proteinase inhibitor cocktail and 0.1% BSA. Bound phage were rescued and counted as described for cell panning. Fd-tet phage was injected at the same input as a control. The experiment was repeated twice. In parallel, part of the same tissue samples were fixed in Bouin solution, and imbedded in paraffin for preparation of tissue sections. An antibody to M-13 phage (Amersham-Pharmacia) was used for the staining.

In assay [5] the test system is HUVECs. The assay is described as follows: HUVEC chemotaxis assay (Boyden chamber, VEGF-A). Format: cell-based, human. To be noted: 1 mM, VEGF-A 10 ng/ml, 5 h, FIG. 24. Here is the method:
FIG. 24. […] (SEQ ID NO:123) inhibits HUVEC migration. HUVECs were stimulated with VEGF-A (10 ng/ml). The assay was performed in a Boyden microchemotaxis chamber, and cells were allowed to migrate through an 8-μm pore filter for 5 h at 37° C. […] (SEQ ID NO:124) (control) and […] (SEQ ID NO:123) peptides were tested at 1 mM concentration. Migrated cells were stained and five high-power fields (magnitude 100×) for each microwell were counted. Error bars are the standard error of the means of triplicate microwells.
A cell migration assay was performed in a 48-well microchemotaxis chamber (NeuroProbe, Gaithersburg, Md.) according to Bussolini et al. (1995). Polyvinylpyrrolidone-free polycarbonate filters (Nucleopore, Cambridge, Mass.) with 8-μm pores were coated with 1% gelatin for 10 min at room temperature and equilibrated in M199 medium supplemented with 2% FCS. […] (SEQ ID NO:123) or control […] (SEQ ID NO:124) peptide (1 mM) was placed in the lower compartment of a Boyden chamber in M199 medium supplemented with 2% FCS and 10 ng/ml VEGF-A (R&D System). Subconfluent cultures that had been starved overnight were harvested in PBS containing 2.5 mM EDTA, washed once in PBS, and resuspended in M199 medium containing 2% FCS at a final concentration of 2×10^6 cells/ml. After the filter was placed between the lower and upper chambers, 50 μl of the cell suspension was seeded in the upper compartment, and cells were allowed to migrate for 5 h at 37° C. in a humidified atmosphere with 5% CO2. The filter was then removed, and cells on the upper side were scraped with a rubber policeman. Migrated cells were fixed in methanol and stained with Giemsa solution (Diff-Quick, Baxter Diagnostics, Rome, Italy). Five random high-power fields (magnitude 100×) were counted in each well. Each assay was run in triplicate.

Assay [6] has as its system HUVECs. The assay is described as follows: HUVEC cell growth assay (crystal violet, VEGF-A). The assay is classed as cell-based, human. To be noted: 1 mM, VEGF-A 10 ng/ml, FIG. 25. Here is the method: FIG. 25. […] (SEQ ID NO:123) inhibits HUVEC proliferation. Cells were stimulated with VEGF-A (10 ng/ml), and growth was evaluated at the indicated times by a colorimetric assay based on crystal violet staining. Error bars are the standard error of the means of triplicate wells. Each experiment was repeated at least twice with similar results.
HUVECs were seeded in 48-well plates (10^4 cells/well) and allowed to attach for 24 h in complete M199 medium. The cells were then starved in M199 medium containing 2% FCS for 24 h. […] (SEQ ID NO:123) or control […] (SEQ ID NO:124) peptide (1 mM) was added to the wells in medium containing 2% FCS and 10 ng/ml VEGF-A (R&D System, Abingdom, UK). After incubation for the indicated times, cells were fixed in 2.5% glutaraldehyde, stained with 0.1% crystal violet in 20% methanol, and solubilized in 10% acetic acid. All treatments were done in triplicate. Cell growth was evaluated by measuring the O.D. at 590 nm in a microplate reader (Biorad, Hercules, Calif.). A calibration curve was established and a linear correlation between O.D. and cell counts was observed between 10^3 and 10^5 cells.

The test system of assay [7] is HUVECs. The assay is described as follows: Three-dimensional Matrigel culture of HUVECs (capillary-like network). Format: cell-based, human. The following applies: 1 mM, 24 h, not shown. The protocol:
Matrigel (Collaborative Research, Bedford, Mass.) was added at 100 μl per well to 48-well tissue culture plates and allowed to solidify for 10 min at 37° C. HUVECs were starved for 24 h in M199 medium supplemented with 2% FCS before being harvested in PBS containing 2.5 mM EDTA. 10^4 cells were gently added to each of the triplicate wells and allowed to adhere to the gel coating for 30 min at 37° C. Then, medium was replaced with indicated concentrations of […] (SEQ ID NO:123) or […] (SEQ ID NO:124) peptides in complete medium. The plates were photographed after 24 h with an inverted microscope (Canon). The assay was repeated three times.

The subject of assay [8] is chicken chorioallantoic membrane (CAM). The assay can be described thus: CAM assay for angiogenesis. The assay is classed as in vivo. The following applies: control peptide, 1 mM, not shown. Here is the method:
In vivo angiogenesis was evaluated by a CAM assay (Ribatti et al., 1994). Fertilized eggs from White Leghorn chickens were maintained in constant humidity at 37° C. On the third day of incubation, a square window was opened in the eggshell and 2-3 ml of albumen was removed to detach the developing CAM from the shell. The window was sealed with a glass plate of the same size and the eggs were returned to the incubator. At day 8, 1 mm^3 sterilized gelatin sponges (Gelfoam, Upjohn Co, Kalamazoo, Milan) were adsorbed with VEGF-A (20 ng, R&D System) and either […] (SEQ ID NO:123) or control […] (SEQ ID NO:124) peptide (1 mM) in 3 μl PBS and implanted on the top of the growing CAMs under sterile conditions. CAMs were examined daily until day 12 and photographed in ovo with a Leica stereomicroscope. Capillaries emerging from the sponge were counted. The assay was repeated twice.

T2 sequence (Q07075 whole entry): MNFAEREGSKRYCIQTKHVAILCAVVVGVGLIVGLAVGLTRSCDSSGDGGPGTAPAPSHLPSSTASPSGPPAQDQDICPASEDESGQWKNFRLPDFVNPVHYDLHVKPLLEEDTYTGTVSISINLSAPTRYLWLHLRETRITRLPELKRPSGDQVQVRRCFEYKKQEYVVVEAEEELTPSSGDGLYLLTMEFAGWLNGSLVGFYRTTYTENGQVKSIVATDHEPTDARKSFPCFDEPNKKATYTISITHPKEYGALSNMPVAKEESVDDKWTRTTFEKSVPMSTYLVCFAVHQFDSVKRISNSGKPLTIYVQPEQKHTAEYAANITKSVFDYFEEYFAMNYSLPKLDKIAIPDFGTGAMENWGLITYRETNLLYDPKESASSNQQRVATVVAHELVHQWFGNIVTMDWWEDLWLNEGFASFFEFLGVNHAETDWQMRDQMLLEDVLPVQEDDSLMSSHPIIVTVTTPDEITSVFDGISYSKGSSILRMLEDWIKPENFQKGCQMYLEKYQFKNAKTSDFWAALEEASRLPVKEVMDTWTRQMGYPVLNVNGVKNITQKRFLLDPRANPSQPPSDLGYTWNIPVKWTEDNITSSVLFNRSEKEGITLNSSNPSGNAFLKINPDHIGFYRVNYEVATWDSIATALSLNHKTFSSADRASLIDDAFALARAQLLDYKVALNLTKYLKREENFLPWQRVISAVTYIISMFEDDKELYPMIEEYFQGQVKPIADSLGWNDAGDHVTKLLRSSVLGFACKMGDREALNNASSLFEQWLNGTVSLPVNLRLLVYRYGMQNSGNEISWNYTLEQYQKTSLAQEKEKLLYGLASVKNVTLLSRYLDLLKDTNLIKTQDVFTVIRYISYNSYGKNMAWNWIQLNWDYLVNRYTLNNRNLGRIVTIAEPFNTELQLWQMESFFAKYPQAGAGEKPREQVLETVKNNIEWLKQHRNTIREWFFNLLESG

In the case of CKLWQEDGY, the “β5/GST Ratio” value in assay [1] is on record as 1.8.

For the sequence CLGQCASICVNDC, in the assay with APA (SK-RC-49/APA cells) [2], the “Round 2 (%)” value came to 5%. Also, the “displacement of phage binding by CPRECESIC peptide” value with APA (SK-RC-49/APA cells) [3] was “not affected”. Further, the “enrichment in tumor xenografts compared to brain tissue” value (“enrichment … compared to brain tissue” for short) in assay [4] was “Neither CYNLCIRECESICGADGACWTWCADGCSRSC (SEQ ID NO:125) nor CLGQCASICVNDC (SEQ ID NO:126) phage showed any tumor-homing preference”.

CPKVCPRECESNC: the “Round 2 (%)” value with APA (SK-RC-49/APA cells) [2] was found to be 5%. The “enrichment … compared to brain tissue” value in assay [4] is recorded as 4 fold.

As for CYNLCIRECESICGADGACWTWCADGCSRSC, the “Round 2 (%)” value with APA (SK-RC-49/APA cells) [2] came to 50%. In the assay with APA (SK-RC-49/APA cells) [2] (share of phage inserts, round 3), the “Round 3 (%)” value is reported as 100%. Further, in the assay with APA (SK-RC-49/APA cells) [3], the “displacement of phage binding by CPRECESIC peptide” value is “displaced”. Also, the “enrichment … compared to brain tissue” value in assay [4] was “Neither CYNLCIRECESICGADGACWTWCADGCSRSC (SEQ ID NO:125) nor CLGQCASICVNDC (SEQ ID NO:126) phage showed any tumor-homing preference”.

As for DWFSYYEL, the “β5/BSA Ratio” value in assay [1] (colonies from β5-GST wells divided by BSA) is on record as 153. Also, the “β5/GST Ratio” value in assay [1] was found to be 1.7.

For “GACVRLSACGA (disulfide 3-9 (inferred)) [unrelated cyclic control peptide, reference compound]”, the “competition with CPKVCPRECESNC phage for binding to SK-RC-49/APA cells” value with APA (SK-RC-49/APA cells) [3] (soluble peptide in binding medium, not shown) is “no competitive activity”. Also, in the assay on HUVECs [5], the “inhibition of chemotaxis of HUVECs” value is “no significant effect”. In the assay with HUVECs [6], the “inhibition of HUVEC proliferation” value was “no significant effect”. Further, the “HUVEC morphogenesis / capillary-like network” value with HUVECs [7] is “did not affect HUVEC morphogenesis”. The “effect on the number of growing vessels” value in assay [8] is “no effect”.
